# Assay results published in IntAct's records for PubMed 15147197.
# B1: Ferredoxin--NADP reductase, leaf isozyme, chloroplastic (Pisum sativum (Garden pea)), P10933 (parent)
# chain: MAAAVTAAVSLPYSNSTSLPIRTSIVAPERLVFKKVSLNNVSISGRVGTIRAQVTTEAPAKVVKHSKKQDENIVVNKFKPKEPYVGRCLLNTKITGDDAPGETWHMVFSTEGEVPYREGQSIGIVPDGIDKNGKPHKLRLYSIASSAIGDFGDSKTVSLCVKRLVYTNDAGEVVKGVCSNFLCDLKPGSEVKITGPVGKEMLMPKDPNATVIMLGTGTGIAPFRSFLWKMFFEKHEDYQFNGLAWLFLGVPTSSSLLYKEEFEKMKEKAPENFRLDFAVSREQVNDKGEKMYIQTRMAQYAEELWELLKKDNTFVYMCGLKGMEKGIDDIMVSLAAKDGIDWIEYKRTLKKAEQWNVEVY
# B2: Ferredoxin--NADP reductase (Anabaena sp. (strain PCC 7119)), P21890 (parent)
# chain: MSNQGAFDGAANVESGSRVFVYEVVGMRQNEETDQTNYPIRKSGSVFIRVPYNRMNQEMQRITRLGGKIVTIQTVSALQQLNGRTTIATVTDASSEIAKSEGNGKATPVKTDSGAKAFAKPPAEEQLKKKDNKGNTMTQAKAKHADVPVNLYRPNAPFIGKVISNEPLVKEGGIGIVQHIKFDLTGGNLKYIEGQSIGIIPPGVDKNGKPEKLRLYSIASTRHGDDVDDKTISLCVRQLEYKHPESGETVYGVCSTYLTHIEPGSEVKITGPVGKEMLLPDDPEANVIMLATGTGIAPMRTYLWRMFKDAERAANPEYQFKGFSWLVFGVPTTPNILYKEELEEIQQKYPDNFRLTYAISREQKNPQGGRMYIQDRVAEHADELWQLIKNQKTHTYICGLRGMEEGIDAALSAAAAKEGVTWSDYQKDLKKAGRWHVETY
# Variants of: B1
# Settings: with fer1_pea PETF
row,effect of a mutation on the interaction,Variant
1,increasing interaction,Y360W
2,increasing interaction,Y360S

# Variants of: B2
# Settings: with fer1_nosso petF
row,effect of a mutation on the interaction,Variant
1,increasing interaction,Y440F

# Variants of: B2
# Settings: with fer1_nosso petF
# Remark: another data set of the same source
row,effect of a mutation on the interaction,Variant
1,increasing interaction,Y440W
2,increasing interaction,Y440S
